Test results as given in patent publication US12162911B2, “Pulmonary administration of pyocins for treating bacterial respiratory infections” (priority 2014, dated 2024).
Entries after “also recorded” stand apart in the source; their conditions may differ.

Assays:
P. aeruginosa P8 [1] = test: Repeated pyocin exposure followed by P. aeruginosa P8 lung infection and pyocin S5 treatment; assay type: in vivo, Pseudomonas aeruginosa; conditions: for survival: infected at thirteen weeks, 75 μg intranasal 1 h post-infection
Method: Repeated pyocin exposure. Pyocin S5 or PBS was given three times, two weeks apart with administration either via intranasal route (referred to as I.N. groups) or intraperitoneal route (referred to as I.P. groups). For I.N. administration the groups were: PBS and pyocin S5 (75 μg; 25 μl at 3 mg ml^−1). For I.P. administration the group was pyocin S5 (75 μg; 100 μl at 750 μg ml^−1). The PBS I.N. group served as the control group for the I.P. group. Thirteen weeks after the first exposure mice (n=5) were infected intranasally with P. aeruginosa P8 (I.N group infected with 1.4×10^7 CFU, I.P group infected with 5.0×10^6 CFU) and treated intranasally one hour post-infection with 75 μg of pyocin S5 or PBS, as described previously.
To ascertain if repeated exposure to pyocins gives rise to an antibody response that is detrimental to treatment, mice were repeatedly exposed to pyocin S5 to induce an antibody response and the efficacy of pyocin treatment was determined as before after infection with P. aeruginosa P8. Pyocin S5 was administered three times, with two weeks between each administration, either via the intranasal route (I.N.) or the intraperitoneal (I.P.) route. Thirteen weeks after the first treatment, mice (n=5) were infected intranasally with P. aeruginosa P8 (I.N. group infected with 1.4×10^7 CFU, I.P. group infected with 5.0×10^6 CFU) and treated intranasally 1 h post-infection with 75 μg of pyocin S5 or PBS. A control group administered only PBS intranasally prior to infection was also included. […] The levels of pyocin-S5 specific IgG and IgA were analysed for each mouse.

P. aeruginosa E2 = test: Mouse model of acute lung infection, P. aeruginosa E2; assay type: in vivo, Pseudomonas aeruginosa
Method: (§1) Model of acute lung infection. Female C57/BL6 mice were inoculated intranasally with 25 μl of bacterial culture containing approximately 10^7 CFU of the selected P. aeruginosa strain^36. Antibiotic treatments were administered at either 6 h pre-infection or 1 h post-infection and were administered only once. Pyocins or tobramycin dissolved in PBS were administered via intranasal administration as described above. Two different end-points were used in these experiments. In order to determine a reduction in the bacterial load of the lungs compared to the untreated controls, all mice in the experiment were culled by carbon dioxide asphyxiation at the same time; 4-6 h post infection. To determine if mice could survive infection after pyocin or tobramycin treatment, mice were monitored closely, culled by carbon dioxide asphyxiation when required as determined by a scoring system or culled at the pre-determined 24 h time point. Uninfected mice, treated with pyocins, were used as controls in the first series of experiments in order to ensure no adverse effects from pyocin treatment. These controls were stopped in later experiments in order to reduce the number of animals used, once it was clear that the pyocins were not harmful. For CFU determination, lungs were removed aseptically and kept on ice in 750 μl of PBS until homogenised. Serial 10-fold dilutions of the homogenised lung were plated on Pseudomonas selective agar (20 g peptone, 1.5 g K2HPO4, 1.5 g MgSO4·7H2O, 10 ml glycerol, 15 g agar, 0.025 g Irgasan per litre) and incubated at 37° C. for 24 h and then room temperature for 24 h before the colonies were counted.
(§2) Since strains of P. aeruginosa are phenotypically diverse, we tested the efficacy of the pyocins against three additional isolates: P. aeruginosa P17 and P. aeruginosa P5 (mucoid), both from cystic fibrosis patients and P. aeruginosa E2, an environmental isolate. Pyocin S2 was not active against P. aeruginosa P5 or P. aeruginosa E2 in vitro therefore was not used to treat these strains in vivo and similarly pyocin L1 was not used against P. aeruginosa P17. […] Lung homogenates from P. aeruginosa E2-infected AP41-treated mice contained high levels of viable bacteria, reduced only 10-fold relative to control mice (Table 1). […] Thus, pyocins show strong efficacy against diverse strains of P. aeruginosa with pyocin S5 treatment displaying the largest effect on reducing bacterial load.

P8AP41T [2] = test: Mouse model of acute lung infection, AP41 tolerant strain P8AP41T; assay type: in vivo, Pseudomonas aeruginosa; conditions: 3 mg ml^−1 1 h post-infection
Method: as §1
(§3) In order to determine if pyocin tolerance or resistance was acquired upon pyocin treatment in vivo, viable bacteria recovered from mice that survived infection to the 24 h end-point, in all experiments discussed in this work, were tested for pyocin susceptibility. From these experiments no pyocin resistant colonies were isolated. […] Importantly, sensitivity to pyocins S5 and L1 were unaffected in vitro in this pyocin AP41-tolerant strain (FIG. 3a) and this was also shown to be the case in vivo when mice were infected with P8AP41T.

[3] = system: collection of diverse environmental and clinical isolates; test: Activity against a collection of diverse environmental and clinical isolates; assay type: cell-based, Pseudomonas aeruginosa
[4] = system: P. aeruginosa P5 (mucoid); test: Mouse model of acute lung infection, P. aeruginosa P5; assay type: in vivo, Pseudomonas aeruginosa
Method: as §1, §2

P. aeruginosa P8 [5] = test: Mouse model of acute lung infection, P. aeruginosa P8; assay type: in vivo, Pseudomonas aeruginosa
Method: Study design. […] For all experiments 6 week-old, female, murine pathogen free C57/BL6 mice weighing 15-21 g were used (Charles Rivers Laboratories, UK). All mice received food and water ad libitum and were housed in groups during the experiments. Power calculations were used to predetermine sample size (n=6, for all treatment experiments). Mice were culled when required as determined by a scoring system or culled at the pre-determined 24 h time point. All mice, including outliers were included in the statistical analysis. Experiments were either carried out once only or repeated once (defined for each experiment).
as §1

P8AP41T [6] = test: Pyocin sensitivity in vitro (spot tests) of strain P8AP41T; assay type: cell-based, Pseudomonas aeruginosa; conditions: spot tests, FIG. 3a
Method: Pyocin sensitivity assays: overlay spot plate method. Soft agar overlay spot plates were performed using the method of ^35. 150 μl of test strain culture at OD600 nm=0.6 was added to 6 ml of 0.8% soft agar and poured over an LB agar plate. 5 μl of bacteriocin, lung homogenate or blood at varying concentrations was spotted onto the plates and incubated for 24 h at 37° C.
as §3

[7] = survival to 24 h, treatment 1 h post-infection

B1: Pyocin S5: S-type pyocin, SEQ ID NO: 13; binds FptA, pore-forming effector (protein, listed as Pseudomonas aeruginosa)
chain: MSNDNEVPGSMVIVAQGPDDQYAYEVPPIDSAAVAGNMFGDLIQREIYLQKNIYYPVRSIFEQGTKEKKEINKKVSDQVDGLLKQITQGKREATRQERVDVMSAVLHKMESDLEGYKKTFTKGPFIDYEKQSSLSIYEAWVKIWEKNSWEERKKYPFQQLVRDELERAVAYYKQDSLSEAVKVLRQELNKQKALKEKEDLSQLERDYRTRKANLEMKVQSELDQAGSALPPLVSPTPEQWLERATRLVTQAIADKKQLQTTNNTLIKNSPTPLEKQKAIYNGELLVDEIASLQARLVKLNAETTRRRTEAERKAAEEQALQDAIKFTADFYKEVTEKFGARTSEMARQLAEGARGKNIRSSAEAIKSFEKHKDALNKKLSLKDRQAIAKAFDSLDKQMMAKSLEKFSKGFGVVGKAIDAASLYQEFKISTETGDWKPFFVKIETLAAGAAASWLVGIAFATATATPIGILGFALVMAVTGAMIDEDLLEKANNLVISI
For B1, the survival (P. aeruginosa P8 [1]; I.N. pre-exposure 75 μg three times two weeks apart) was “survived to the 24 h time-point”, the “bacterial load of the lungs” value (P. aeruginosa P8 [1]; I.N. pre-exposure 75 μg three times, 75 μg intranasal 1 h post-infection (FIG. 8a)) was “no viable bacteria were recovered” and the survival (P. aeruginosa P8 [1]; I.P. pre-exposure 75 μg three times two weeks apart) was “all survived to the 24 h time-point”. The “bacterial load of the lungs” value (P. aeruginosa P8 [1]; I.P. pre-exposure 75 μg three times, 75 μg intranasal 1 h post-infection (FIG. 8c)) was “no viable bacteria were recovered”, the survival / protection (P. aeruginosa E2; pyocin 3 mg ml^−1, endpoint 24 h, infected controls culled at 5.5 h) was “survived until the 24 h endpoint” and the “bacterial count in lung, E2” value (P. aeruginosa E2; pyocin 3 mg ml^−1, treated mice survived to 24 h, no treatment 1.5 × 10^5 CFU/lung) was “No colonies”. The “bacterial numbers in lung homogenates” value (P8AP41T [2]; 24 h (FIG. 3b)) was “significantly reduced bacterial numbers; also recorded: No colonies were recovered”, the survival (P8AP41T [2]; endpoint 24 h, PBS controls culled 6 h post-infection (FIG. 3b)) was “survived until the endpoint of the experiment at 24 h” and the “strains against which active” value [3] was 87%. For the same molecule, the survival / protection ([4]; pyocin 3 mg ml^−1, endpoint 24 h, infected controls culled at 4.5 h) was “survived until the 24 h endpoint”, the “bacterial count in lung, P5” value ([4]; pyocin 3 mg ml^−1, treated mice survived to 24 h, no treatment 1.7 × 10^5 CFU/lung) was “No colonies” and the survival (P. aeruginosa P8 [5]; 30 ng ml^−1, 1 h post-infection (FIG. 2b)) was “survived to 24 h”. For the same molecule, the “bacterial counts compared to the PBS controls” value (P. aeruginosa P8 [5]; 30 ng ml^−1, 24 h post-infection (FIG. 2b)) was “significantly reduced the bacterial counts”, the “bacteria recovered from lung” value (P. aeruginosa P8 [5]; 3 mg ml^−1 1 h post-infection, 24 h post-infection, six mice (FIG. 1d)) was “no bacteria recovered; also recorded: No colonies were recovered” and the “treated mice from which viable bacteria were recovered” value (P. aeruginosa P8 [5]; 3 mg ml^−1 intranasal 1 h post-infection, culled 4.5 h post-infection (FIG. 1c)) was “three out of six”. The “viable bacteria recovered from lung” value (P. aeruginosa P8 [5]; 3 mg ml^−1 intranasal 6 h pre-infection, 24 h post-infection (FIG. 1b)) was “no viable bacteria were recovered; also recorded: No colonies were recovered”, the “viable bacteria recovered from lung homogenates” value (P. aeruginosa P8 [5]; C57/BL6 mice, 3 mg ml^−1 intranasal 6 h pre-infection, culled 4 h post-infection (FIG. 1a)) was “no viable bacteria were recovered; also recorded: No colonies were recovered” and the “concentration at which effective in this model” value (P. aeruginosa P8 [5]; in vivo) was “lower than 1 nM”. The “Lowest active concentration tested” value (P. aeruginosa P8 [5]; lowest concentration tested with which the treated mice survived to 24 h) was 30 ng/mL, the “potency relative to tobramycin” value (P. aeruginosa P8 [5]; minimum effective concentrations compared) was “at least 100 fold” and the Corresponding molarity (P. aeruginosa P8 [5]; molarity of lowest active concentration tested) was 535 pM. For the same molecule, the “bacterial load compared with tobramycin” value (P. aeruginosa P8 [5]; pyocin S5 0.3 or 3 mg ml^−1 versus tobramycin 30 or 3 mg ml^−1, 1 h post-infection, culled 4.5 h (FIG. 2a)) was “reduced the bacterial load to a greater extent than tobramycin”, the “bacterial counts compared with tobramycin” value (P. aeruginosa P8 [5]; repeat of FIG. 2a experiment (FIG. 6)) was “reduced bacterial counts to a greater extent than tobramycin” and the “lowest concentration at which effective (lower limit)” value (P. aeruginosa P8 [5]; [7]) was over 300 pg/mL. The “lowest concentration at which effective (upper limit)” value (P. aeruginosa P8 [5]; [7]) was at most 30 ng/mL and the “sensitivity of the pyocin AP41-tolerant strain in vitro” value (P8AP41T [6]) was “unaffected”.
